Here are results for 1 substance from patent US20160257757A1.

The target in assay [1] is full-length mouse GCGR (mouse) (UniProt Q61606). The assay can be described thus: cell-based or functional assay.
In assay [2] the target is full-length rat GCGR transiently expressed on HEK293 reporter cells (rat) (UniProt P30082). The assay can be described thus: cell-based or functional assay.
Sequence of full-length rat GCGR transiently expressed on HEK293 reporter cells (rat) (P30082 27-485 limits assumed): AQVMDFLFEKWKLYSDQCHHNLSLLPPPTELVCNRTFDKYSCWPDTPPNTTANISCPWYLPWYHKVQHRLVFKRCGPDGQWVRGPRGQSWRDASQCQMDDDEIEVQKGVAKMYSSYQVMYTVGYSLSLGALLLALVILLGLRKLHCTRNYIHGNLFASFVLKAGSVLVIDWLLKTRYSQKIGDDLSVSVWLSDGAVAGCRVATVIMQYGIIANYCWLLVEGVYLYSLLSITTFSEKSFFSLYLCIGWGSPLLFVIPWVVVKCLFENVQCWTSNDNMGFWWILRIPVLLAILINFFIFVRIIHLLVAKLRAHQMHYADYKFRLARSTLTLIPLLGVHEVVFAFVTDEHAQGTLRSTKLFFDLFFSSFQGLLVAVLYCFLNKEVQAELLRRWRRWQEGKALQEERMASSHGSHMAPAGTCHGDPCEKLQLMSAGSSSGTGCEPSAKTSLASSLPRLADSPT

Sequence of full-length mouse GCGR (mouse) (Q61606 27-485 limits assumed): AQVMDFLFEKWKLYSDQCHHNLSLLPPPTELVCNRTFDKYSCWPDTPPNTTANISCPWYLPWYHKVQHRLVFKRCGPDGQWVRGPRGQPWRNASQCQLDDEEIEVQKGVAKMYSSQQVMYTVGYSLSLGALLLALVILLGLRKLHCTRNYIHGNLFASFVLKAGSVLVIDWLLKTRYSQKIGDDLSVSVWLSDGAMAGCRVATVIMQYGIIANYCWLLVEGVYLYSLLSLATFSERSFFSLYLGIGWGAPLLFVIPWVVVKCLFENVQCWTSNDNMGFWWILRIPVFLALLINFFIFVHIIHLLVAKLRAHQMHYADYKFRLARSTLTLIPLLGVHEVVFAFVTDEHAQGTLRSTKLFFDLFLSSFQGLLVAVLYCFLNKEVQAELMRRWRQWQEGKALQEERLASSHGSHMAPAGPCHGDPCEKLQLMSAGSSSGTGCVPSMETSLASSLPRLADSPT

For “glucagon (from UniProt P01275 53-81) (ligand)”, the results for the EC50 of luciferase (cAMP/CRE reporter) stimulation in HEK293/GCGR cells in assay [1] and in assay [2] were 83 pM and 252 pM, respectively.
